B1: human IL-22R extracellular domain-Fc fusion homodimer (Fc fusion)
chain: HAPEDPSDLLQHVKFQSSNFENILTWDSGPEGTPDTVYSIEYKTYGERDWVAKKGCQRITRKSCNLTVETGNLTELYYARVTAVSAGGRSATKMTDRFSSLQHTTLKPPDVTCISKVRSIQMIVHPTPTPIRAGDGHRLTLEDIFHDLFYHLELQVNRTYQMHLGGKQREYEFFGLTPDTEFLGTIMICVPTWAKESAPYMCRVKTLPDRTWTAGSGSGSG
notes: extracellular domain; Used as CHO conditioned medium, not purified; also called IL-22R-Fc; IL-22RECD-Fc; not shown: human IgG1 Fc
B3: biotinylated N terminal His/Flag tagged human IL-22 (ligand)
chain: GSGHHHHHHGSGDYKDDDDKAPISSHCRLDKSNFQQPYITNRTFMLAKEASLADNNTDVRLIGEKLFHGVSMSERCYLMKQVLNFTLEEVLFPQSDRFQPYMQEVVPFLARLSNRLSTCHIEGDDLHIQRNVQKLKDTVKKLGESGEIKAIGELDLLFMSLRNACI
modifications: biotinylated with EZ-Link Sulfo-NHS-Biotin (sites not given)
notes: also called bio-IL-22; biotinylated IL-22

Test [1] addresses B3. Briefly: ELISA, bio-IL-22 on streptavidin plates, IL-22R-Fc titrated (FIG. 6B). Here is the method:
(§1) FIG. 6B depicts the results form an ELISA assay performed in the opposite format, whereby 100 µl of 1 µg/ml biotinylated IL-22 was added to Reacti-Bind 96 well streptavidin-coated plates (Pierce, Rockford, Ill.) for one hour. After washing, Fc fusion receptor was added at various concentrations to the plates for one hour, washed and then detected with goat anti-human IgG-HRP. In FIG. 6A, fifty ng/ml of total Fc in conditioned media (CM) from CHO cells expressing either IL-22R-Fc (▪) or IL-10R2-Fc (O) was captured onto anti-human IgG coated wells. Biotinylated IL-22 (bio-IL-22) at various concentrations was then added to the wells. Bound bio-IL-22 was subsequently detected using streptavidin-HRP. In FIG. 6B, bio-IL-22 (1 μg/ml) was captured onto streptavidin plates. Various concentrations of either IL-22R-Fc (▪) or IL-10R2-Fc (O) in diluted CHO. CM was then added to the wells. Bound receptor Fc was subsequently detected using goat anti-human IgG-HRP.
IL-22 binding to the extracellular domain (ECD) of IL-22R and IL-10R2 was evaluated using two ELISA formats. In the first version, receptor-Fc fusion proteins were immobilized via the Fc domain on anti-human IgG coated plates. Biotinylated IL-22 was then added and detected with streptavidin-HRP. […] Receptor-Fc were then added and detected with HRP-conjugated, anti-hIgG.
Background: In an ELISA, binding on a coated surface is turned into a signal by an enzyme label.

Test [2] addresses B3. Kind of test: competition ELISA (printed as ND50): IL-22BP-Fc pre-incubated with bio-IL-22 5 ng/ml, binding to captured IL-22R/IL-10R2-Fc heterodimer (FIG. 11B by its legend); IL-22R/IL-10R2-Fc heterodimer immobilized (FIG. 11B; printed as FIG. 6B). Here is the method:
Colorimetric detection of the peroxidase product was done at 450 nm in a Molecular Devices (Sunnyvale, Calif.) microplate reader.
(§2) For certain ELISA assays of the above format where both the receptor Fc and bio-IL-22 are at a fixed concentration, IL-10R2-Fc was added at various concentrations either before or with bio-IL-22 (FIG. 9A) or after the bio-IL-22 (FIG. 9B). For other ELISA assays of the above format where the indicated receptor Fc and bio-IL-22 are also at a fixed concentration, antibodies (FIG. 10B-10C., 11C) or IL-22BP (FIG. 11A-11B) were added at various concentrations after a pre-incubation with the bio-IL-22 for 30 minutes. For ELISA assays in which the recruitment of IL-10R2-Fc to the IL-22/IL-22R complex was detected directly (data not shown, experimental design of FIG. 9A), non-biotinylated IL-22 was added to the ELISA and either polyclonal goat anti-hIL-10R2 or a mouse monoclonal anti-hIL-10R2 (R&D Systems, Inc, Minneapolis, Minn.) was used as detector.
IL-22 binding protein (IL-22BP) is a soluble ‘receptor’ for IL-22 that has low homology to the extracellular domain of IL-22R. It neutralizes signal transduction mediated by IL-22 (Dumoutier, L. et al. (2001) J Immunol 166(12):7090-5; Kotenko, S. V. et al. (2001) J Immunol 166(12):7096-103; Xu, W. et al. (2001) Proc Natl Acad Sci USA 98(17):9511-6; Wei C-C et al. (2003) Genes & Immunity 4:204-21117). […]

Test [3] addresses B3. Briefly: blocking ELISA: IL-22BP-Fc pre-incubated 30 min with bio-IL-22 (5 ng/ml), added to 50 ng/ml total Fc of co-expressed IL-22R-Fc/IL-10R2-Fc captured on anti-human IgG wells; bound bio-IL-22 read with streptavidin-HRP, A450; blocked partner IL-22R-Fc/IL-10R2-Fc. Here is the method:
(§3) After a final set of washes, 100 μl of TMB Microwell peroxidase substrate (BioFX, Owings Mills, Md.) was added for 20 minutes and the reaction stopped with 100 μl 2N H₂SO₄. Colorimetric detection of the peroxidase product was done at 450 nm in a Molecular Devices (Sunnyvale, Calif.) microplate reader.
as §2
(§4) IL-22 binding protein (IL-22BP) is a soluble ‘receptor’ for IL-22 that has low homology to the extracellular domain of IL-22R. […]

Test [4] deals with B3. Briefly: blocking ELISA: IL-22BP-Fc pre-incubated 30 min with bio-IL-22 (30 ng/ml), added to 50 ng/ml IL-22R-Fc captured on anti-human IgG wells; bound bio-IL-22 read with streptavidin-HRP, A450; blocked partner IL-22R-Fc. Here is the method:
as §3, §2, §4

Test [5] addresses B3. Kind of test: competition ELISA (printed as ND50): IL-22BP-Fc pre-incubated with bio-IL-22 30 ng/ml, binding to captured IL-22R-Fc; IL-22R-Fc homodimer immobilized (FIG. 11A). Here is the method: as §3, §2, §4
Test [6] concerns the target B1. Briefly: ELISA, IL-22R-Fc captured on anti-human IgG, bio-IL-22 titrated (FIG. 6A). Here is the method:
as §3
as §1, with “Various concentrations of either IL-22R-Fc (▪) or IL-10R2-Fc (O) in diluted CHO. CM was then added to the wells.” left out
IL-22 binding to the extracellular domain (ECD) of IL-22R and IL-10R2 was evaluated using two ELISA formats. […] Biotinylated IL-22 was then added and detected with streptavidin-HRP. […] Receptor-Fc were then added and detected with HRP-conjugated, anti-hIgG.

Test [7] has as its target T1, IL-22R-Fc/IL-10R2-Fc heterodimer from co-expressing CHO cells (human, UniProt Q8N6P7 16-228; Q08334 20-220).
T1 construct: extracellular domain; also called IL-22R/IL-10R2-Fc heterodimer; IL-22R-Fc/IL-10R2-Fc complex; not shown: human IgG1 Fc
T1 sequence 1: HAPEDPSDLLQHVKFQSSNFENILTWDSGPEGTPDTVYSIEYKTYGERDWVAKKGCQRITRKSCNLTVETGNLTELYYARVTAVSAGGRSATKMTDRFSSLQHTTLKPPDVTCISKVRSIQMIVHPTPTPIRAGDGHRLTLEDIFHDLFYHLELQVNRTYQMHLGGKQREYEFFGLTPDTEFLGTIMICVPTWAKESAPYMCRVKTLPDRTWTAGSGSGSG
T1 sequence 2: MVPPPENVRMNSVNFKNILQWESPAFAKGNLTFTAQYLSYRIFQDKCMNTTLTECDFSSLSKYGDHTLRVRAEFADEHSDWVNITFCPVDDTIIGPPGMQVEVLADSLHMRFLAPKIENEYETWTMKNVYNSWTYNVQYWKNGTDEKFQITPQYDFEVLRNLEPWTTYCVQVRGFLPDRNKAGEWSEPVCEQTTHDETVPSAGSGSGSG
Briefly: ELISA, 50 ng/ml total Fc from co-expressing CHO captured on anti-human IgG, bio-IL-22 titrated (FIG. 8A). Here is the method: The results shown in FIGS. 6A, 8A-8B, 9A-9B, 10B-10C and 11A-11C were obtained from ELISA assays where receptor Fc from CHO CM were first immobilized via an anti-hIgG coat. Flat bottom, 96-well ELISA plates (Costar, Cambridge, Mass.) were coated overnight at 4° C. with 100 μl goat anti-human IgG antibody (Southern Biotech Associates, Inc., Birmingham, Ala.) at 1 μg/ml in 0.1 M sodium carbonate buffer (pH 9.6). The plates were washed twice with 200 pi phosphate-buffered saline containing 0.05% Tween 20 (PBS-T), blocked with 100 μl 1% BSA (Sigma, St. Louis, Mo.) in PBS-T for 1 hour and washed three times. Following by one hour sequential incubations (100 ul), each separated by three washes, were then employed: a given receptor fusion(s) at a fixed concentration or serially diluted, biotinylated IL-22 (bio-IL-22) at a fixed concentration or serially diluted, and then 1/10,000 dilution of streptavidin-horse radish peroxidase (HRP) (Southern Biotech Associates, Inc., Birmingham, Ala.). […] Colorimetric detection of the peroxidase product was done at 450 nm in a Molecular Devices (Sunnyvale, Calif.) microplate reader.
IL-22 binding to the ECD of IL-22R and IL-10R2 secreted as Fc heterodimer was then evaluated. […] The ability of cytokine to bind was then evaluated using various concentrations of bio-IL-22 as the detector (FIG. 8A). […]

Experimental findings from patent US20050042220A1 (GENETICS INSTITUTE, published 2005) are described below.

For the molecule B1, the concentration giving a half-maximal response (EC50) in test [1] stood at 6 ng/mL.

B2: human IL-22 binding protein-Fc fusion (Fc fusion)
chain: TQSTHESLKPQRVQFQSRNFHNILQWQPGRALTGNSSVYFVQYKIYGQRQWKNKEDCWGTQELSCDLTSETSDIQEPYYGRVRAASAGSYSEWSMTPRFTPWWETKIDPPVMNITQVNGSLLVILHAPNLPYRYQKEKNVSIEDYYELLYRVFIINNSLEKEQKVYEGAHRAVEIEALTPHSSYCVVAEIYQPMLDRRSQRSEERCVEIPAGSGSGSG
notes: Fc fusion homodimer, used as CHO conditioned medium; also called IL-22BP-Fc; huIL22BP-huFc; not shown: human IgG1 Fc
In the case of B2, the IC50 in test [2] came to 2 nM; in test [5], 4 nM. For the same molecule, the “IC50 (read off the curve)” value in test [3] is ~0.2 nM; in test [4] it was ~0.5 nM.
The molecule B3 displayed an EC50 in test [6] of 0.02 µg/mL. The “fold less bio-IL-22 needed for a comparable signal than with immobilized IL-22R-Fc homodimer” value in test [7] was 8 fold.

In general, EC50 refers to the concentration needed to bring the measured effect to its halfway point. Read a low EC50 as an effect from little substance. As usually defined, the IC50 is the concentration needed to halve the response being measured.
